One assay deals with 细胞膜表面表达的人CD47蛋白 (human, UniProt Q08722 19-323). Description: cell-based or functional assay.
The target in assay [1] is T1, 人CD47蛋白胞外区融合蛋白(hCD47-ECD-6His) (human, UniProt Q08722 19-139, limits assumed).
T1 construct: extracellular domain; Made in FreeStyle 293F cells, purified on a nickel column; not shown: linker peptide-6His (连接肽-6His)
Description: ELISA, hCD47-ECD-6His coated, goat anti-mouse IgG-HRP. (In general: In an ELISA, binding on a coated surface is turned into a signal by an enzyme label.)

T1 sequence (Q08722 19-139 limits assumed): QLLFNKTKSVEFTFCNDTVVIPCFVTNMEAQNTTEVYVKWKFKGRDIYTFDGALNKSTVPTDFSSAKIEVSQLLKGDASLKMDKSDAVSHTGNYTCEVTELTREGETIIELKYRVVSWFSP
细胞膜表面表达的人CD47蛋白, sequence (Q08722 19-323): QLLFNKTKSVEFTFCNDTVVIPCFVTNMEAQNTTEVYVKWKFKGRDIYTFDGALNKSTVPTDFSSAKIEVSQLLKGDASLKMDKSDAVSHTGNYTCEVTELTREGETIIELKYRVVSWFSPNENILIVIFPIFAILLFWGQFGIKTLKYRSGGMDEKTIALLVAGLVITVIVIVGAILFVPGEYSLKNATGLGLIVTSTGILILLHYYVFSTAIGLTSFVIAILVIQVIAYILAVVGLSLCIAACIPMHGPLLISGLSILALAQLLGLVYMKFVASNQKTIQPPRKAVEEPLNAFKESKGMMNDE

B1: 抗人CD47单克隆抗体A1 (antibody, V domains shown)
VH: EFQLQQSGPELVKPGASVKMSCKASGYTFTNYVLHWVKQKPGQGLEWIGYFNPYNDDSKYNEKFKGKATLTSDKSSSTAYMELSSLTSEDSAVYYCARGGYYSMDYWGQGTTVTVSS
VL: DVMTQTPLSLPVSLGDQASISCRASQSLAHSNGYTYLQWYLQKPGQSPKLLIYKVSKRFSGVPDRFSGSGSGTDFTLKISRVEAEDLGVYFCSQSTHVPYTFGQGTKVEIK
Consider B1, for which, in the assay with 细胞膜表面表达的人CD47蛋白, the “促吞噬曲线的EC50值 (ATP法, C57BL小鼠腹腔原代巨噬细胞对Raji细胞的吞噬)” value (from here on “促吞噬曲线的EC50值”) is 0.00439 微克/毫升. Further, in assay [1], the EC50 came to 0.016 µg/mL.

B2: 抗人CD47单克隆抗体A3 (antibody, V domains shown)
VH: QVQLQQPGAELVRPGASVKLSCKASGHTFTNYWMNWIKQRPEQGLEWIGNIDPYDSETHYNQKFKDKAILTVGKSSSTAYMQLSSLTSEDSAVYYCAIWRGYALDYWGQGTSVTVSS
VL: CDVQITQSPSYLAASPGETITINCRASKSISKFLAWYQEKPGKTNNLLIYSGSTLQSGIPSRFSGSGSGTDFTLTISSLEPEDFAMYYCQQHNEYPWTFGGGTKLEIK
Take B2: the “促吞噬曲线的EC50值” value with 细胞膜表面表达的人CD47蛋白 was 0.00391 微克/毫升. Further, in assay [1], the EC50 came to 0.01 µg/mL.

B3: 抗人CD47单克隆抗体A6 (antibody, V domains shown)
VH: QVQLQQSGAELVRPGASVTLSCKASGYSFTDSEMHWVKQTPVYGLEWTGVIDPETGNSAYNQKFKGKATLTADKSSNTAYMELRSLTSEDSAVYYCTRGGVFGYPFDYWGQGTTLTVSS
VL: ENVLTQSPAIMAASLGQKVTMTCSATSSVRSSYLHWYQQKSGASPKPLIHRTSNLASGVPARFSGSGSGTSYSLTISSVEAEDDATYYCQQWRGYPYTFGGGTKLEIK
As to B3, the “促吞噬曲线的EC50值” value with 细胞膜表面表达的人CD47蛋白 is 0.00568 微克/毫升. The half-maximal effective concentration (EC50) in assay [1] is 0.01 µg/mL.

B4: 抗人CD47单克隆抗体A2 (antibody, V domains shown)
VH: EVQVQQSGPELVKPGASVKISCKASGYSFTGYFMNWVKQSHGKSLEWIGRINPYNGDTFYNQKFKGKATLTVDKSSSTAHMELLSLTSEDSAVYYCGRGGYGGMDYWGQGTSVTVSS
VL: DVLMTQTPLSLPVSLGDQASISCRSSQSIVHSNGNTYLEWYLQKPGQSPKLLIYKVSNRFSGVPDRFSGSGSGTDFTLKISRVEAEDLGVYYCFQGSHVPYTFGGGTKLEIK
On to B4, for which, in the assay with 细胞膜表面表达的人CD47蛋白, the “促吞噬曲线的EC50值” value is 0.00462 微克/毫升. A half-maximal effect in assay [1] (EC50) was put at 0.007 µg/mL.

B5: 抗人CD47单克隆抗体A5 (antibody, V domains shown)
VH: EVQLQQSGPELVKPGASMRMSCKASGYSFTGYTMHWVKQSHGTNLEWIGLINPYTGGTNYNQKFKGKATLTLDKSSSTAYMELLSLTSEDFAVYYCARMGLAWFAYWGQGTLVTVSA
VL: DVVMTQTPLSLPVSLGDQASISCRSSQSLVHSNGNTYFHWYLQKPGQSPKLLIYKVSNRFSGVPDRFSGSGSGTDFTLKISRVEAEDLGVYFCSQSTHVPYTFGGGTKLEMK
For the molecule B5, the “促吞噬曲线的EC50值” value with 细胞膜表面表达的人CD47蛋白 was 0.00665 微克/毫升. In assay [1], this molecule registered an EC50 of 0.016 µg/mL.

Broadly, the EC50 is the concentration giving half of the maximal effect. High values mean a less potent agent, low ones a more potent agent.

These data come from patent CN111518208A (QICHEN BAITAI BEIJING MEDICAL TECH CO LTD, dated 2020).
